Tests used:
[1] = test system: rAmpC CMH-4 from E. cloacae 13047; experiment: Assay for ESAC and class B metallo-β-lactamase activity (nitrocefin hydrolysis with clavulanic acid or EDTA); type: biochemical; conditions: 2 mM test substance, 500 nM rAmpC, 500 µM nitrocefin, 30 °C, 8 min
Procedure: (§1) The reactions carried out in the absence and presence of EDTA with purified rAmpC enzymes using the reporter substrate, nitrocefin, were performed. […] The class C β-lactamases are functionally cephalosporinases that are generally resistant to clavulanic acid. However, some AmpCs which show resistance to oxyimino-cephalosporins and are commonly sensitive to clavulanic acid were termed extended-spectrum AmpC β-lactamases (ESAC), similar to the extended-spectrum β-lactamases (ESBLs) of the A class according to the Bush-Jacoby classification. […] To test this aspect of ESAC activity, reactions were performed in the presence of clavulanic acid.
(§2) For each panel, all reactions contained 500 nM rAMpC protein and 500 µM nitrocefin.
(§3) The reactions testing ESBL activity (related to the observation that most ESBL enzymes are inhibited by clavulanic acid) were performed in the absence or presence of 2 mM clavulanic acid. Class B β-Lactamase activity was tested by reactions performed in the absence or presence of 2 mM ethylenediaminetetraacetic acid (EDTA).

[2] = test system: rAmpC CNE-1 from C. neteri SSMD04; experiment: as above; type: biochemical; conditions: 2 mM test substance, 500 nM rAmpC, 500 µM nitrocefin, 30 °C, 8 min
Procedure: as §1, §2, §3

[3] = test system: rAmpC CNE-2 from C. neteri 33855; experiment: as above; type: biochemical; conditions: 2 mM test substance, 500 nM rAmpC, 500 µM nitrocefin, 30 °C, 8 min
Procedure: as §1, §2, §3

[4] = test system: CC1(C)S[C@@H]2[C@H](NC(=O)[C@H](N)c3ccccc3)C(=O)N2[C@H]1C(=O)O; experiment: purified protein, by the assay type; conditions: 37.0 °C
[5] = test system: CC1=C(C(=O)O)N2C(=O)[C@@H](NC(=O)[C@H](N)c3ccccc3)[C@H]2SC1; experiment: purified protein, by the assay type; conditions: 37.0 °C
[6] = test system: CO/N=C(\C(=O)N[C@@H]1C(=O)N2C(C(=O)O)=C(COC(N)=O)CS[C@H]12)c1ccco1; experiment: purified protein, by the assay type; conditions: 37.0 °C
[7] = test system: CO[C@@]1(NC(=O)Cc2cccs2)C(=O)N2C(C(=O)O)=C(COC(N)=O)CS[C@@H]21; experiment: purified protein, by the assay type; conditions: 37.0 °C
[8] = test system: C[C@@H](O)[C@H]1C(=O)N2C(C(=O)O)=C(SCCN=CN)C[C@H]12; experiment: purified protein, by the assay type; conditions: 37.0 °C
[9] = test system: Cc1nnc(SCC2=C(C(=O)O)N3C(=O)[C@@H](NC(=O)Cn4cnnn4)[C@H]3SC2)s1; experiment: purified protein, by the assay type; conditions: 37.0 °C
[10] = test system: O=C(Cc1cccs1)N[C@@H]1C(=O)N2C(C(=O)O)=C(/C=C/c3ccc([N+](=O)[O-])cc3[N+](=O)[O-])CS[C@H]12; experiment: purified protein, by the assay type; conditions: pH 7.0; 30.0 °C
[11] = test system: CDA-1 (AmpC from C. davisae); conditions: cited from earlier work
[12] = biological target: rAmpC CNE-1 from C. neteri SSMD04 (Cedecea neteri, UniProt A0A089PY88); conditions: CNE-1 compared with CDA-1 (ref 13)
[13] = biological target: rAmpC CMH-4 from E. cloacae ATCC 13047 (Enterobacter cloacae subsp. cloacae, UniProt A0A0H3CN55); experiment: Michaelis-Menten kinetic analysis of substrate hydrolysis by purified rAmpC; conditions: CMH-4 compared with E. cloacae P99 AmpC (ref 29)

O=C(O)CN(CCN(CC(=O)O)CC(=O)O)CC(=O)O [EDTA, ethylenediaminetetraacetic acid]
Inhibition of nitrocefin hydrolysis [1]: hydrolyzed the substrate, nitrocefin, in the presence of EDTA
Inhibition of nitrocefin hydrolysis [2]: hydrolyzed the substrate, nitrocefin, in the presence of EDTA
Inhibition of nitrocefin hydrolysis [3]: hydrolyzed the substrate, nitrocefin, in the presence of EDTA

(Cedecea neteri)
Km [4]: 72 µM
Km [5]: 2 µM
Km [6]: 5 µM
Km [7]: 48 µM
Km [8]: 5 µM
Km [9]: 67 µM
Km [10]: 46 ± 5 µM
kcat [10]: 1.93 ± 0.16 s⁻¹
kcat/Km [10]: 41900 M⁻¹ s⁻¹

C[C@@H](O)[C@H]1C(=O)N2C(C(=O)O)=C(SCCN=CN)C[C@H]12 [Imipenem, imipenem]
Km [11]: ~2 µM

CO[C@@]1(NC(=O)Cc2cccs2)C(=O)N2C(C(=O)O)=C(COC(N)=O)CS[C@@H]21 [Cefoxitin, cefoxitin]
Km, fold higher than for CDA-1 from C. davisae [12]: 100 fold

O=C(Cc1cccs1)N[C@@H]1C(=O)N2C(C(=O)O)=C(/C=C/c3ccc([N+](=O)[O-])cc3[N+](=O)[O-])CS[C@H]12 [nitrocefin]
kcat, fold less than for AmpC from E. cloacae P99 [13]: ~ 100 fold

(Enterobacter cloacae subsp. cloacae ATCC 13047)
Km [4]: 7 µM
Km [5]: 6.8 µM
Km [6]: 0.35 µM
Km [7]: 12 µM
Km [8]: 0.85 µM
Km [10]: 11 ± 2 µM

O=C(O)[C@H]1/C(=C/CO)O[C@@H]2CC(=O)N21 [clavulanic acid]
Inhibition of nitrocefin hydrolysis [1]: completely inhibited
Inhibition of nitrocefin hydrolysis [2]: not inhibited
Inhibition of nitrocefin hydrolysis [3]: not inhibited

Reference: article PMC9952435, “Characterization of Two Novel AmpC Beta-Lactamases from the Emerging Opportunistic Pathogen, Cedecea neteri” (Antibiotics, 2023)
